Results reported in publication PMC5912448.

Target: human β-Klotho extracellular domain (aa 1–992) His6 (human) (UniProt Q86Z14)
Test: BLI; Octet RED; biotinylated β-Klotho ECD His6 (10 μg/ml) loaded onto streptavidin biosensors; analyte at various concentrations in kinetics buffer, 5 min association, 10 min dissociation; globally fitted 1:1 binding model

Sequence of UniProt Q86Z14 (Q86Z14 1-992): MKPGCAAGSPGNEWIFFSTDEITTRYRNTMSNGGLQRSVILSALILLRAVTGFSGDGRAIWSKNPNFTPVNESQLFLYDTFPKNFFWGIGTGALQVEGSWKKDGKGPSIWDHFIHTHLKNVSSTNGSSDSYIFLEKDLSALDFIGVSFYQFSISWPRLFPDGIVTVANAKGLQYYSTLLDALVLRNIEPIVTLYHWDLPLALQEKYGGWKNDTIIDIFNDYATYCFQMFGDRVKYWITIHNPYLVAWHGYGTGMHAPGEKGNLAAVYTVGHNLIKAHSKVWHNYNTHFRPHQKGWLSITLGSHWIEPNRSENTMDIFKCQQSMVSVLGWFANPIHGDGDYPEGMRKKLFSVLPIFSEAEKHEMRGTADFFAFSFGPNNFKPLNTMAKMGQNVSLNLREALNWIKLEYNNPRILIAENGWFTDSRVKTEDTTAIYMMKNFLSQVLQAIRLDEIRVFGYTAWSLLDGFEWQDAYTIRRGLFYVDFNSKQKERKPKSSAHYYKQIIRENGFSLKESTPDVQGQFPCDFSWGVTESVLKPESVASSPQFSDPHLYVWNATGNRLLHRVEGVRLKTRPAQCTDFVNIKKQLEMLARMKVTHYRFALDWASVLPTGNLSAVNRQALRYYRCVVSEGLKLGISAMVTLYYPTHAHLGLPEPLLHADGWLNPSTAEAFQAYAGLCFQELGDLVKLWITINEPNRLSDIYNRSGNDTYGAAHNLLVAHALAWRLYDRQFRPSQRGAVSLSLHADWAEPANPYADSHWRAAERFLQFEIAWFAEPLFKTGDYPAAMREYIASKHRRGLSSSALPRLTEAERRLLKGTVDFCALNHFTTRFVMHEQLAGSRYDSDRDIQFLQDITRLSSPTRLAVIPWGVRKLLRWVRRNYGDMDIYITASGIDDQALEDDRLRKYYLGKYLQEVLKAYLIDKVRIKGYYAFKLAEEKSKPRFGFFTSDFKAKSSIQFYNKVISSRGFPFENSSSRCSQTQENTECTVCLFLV

fibroblast growth factor 21 (ligand)
Kd: 3.55 nM
